This is an account of results in the supplement of paper PMC10567573.

± gives the standard deviation.

A short description of this data set: protein stability index of a GFP-peptide fusion (GPS, HEK-293T) (PSI 1-6); higher = more stable.
Where [1] appears, read: treatment: DMSO, c terminus: a fixed tail appended.
The mark [2] stands for this setting: treatment: MLN4924 1 uM, 8 h, c terminus: a fixed tail appended.
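Further: 24-mer peptide tiles fused after GFP, lentivirally expressed, FACS-sorted into six equal bins by GFP/DsRed ratio, decoded by Illumina sequencing, PSI is the read-weighted mean bin number.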

With EEDDDDDDDDNLPQLKKESELPFV [ANKRD40], the protein stability index under setting [1] came out at 5.32 ± 0.1 and the protein stability index under setting [2] was 5.42 ± 0.18.

In the case of EEENAQLRGALQQGEAFQRALESE [PBXIP1], the protein stability index runs as follows: under setting [1], 5.43 ± 0.32; under setting [2], 5.39 ± 0.49.

EEMRELRRKIRELQLRYSLRILIG [BEX5]: the protein stability index under setting [1] is 2.76 ± 0.75 and the protein stability index under setting [2] was found to be 2.5 ± 0.51.

EENMERIGEEVRQLMEKLREKQLS [BEX1] gave a protein stability index under setting [1] of 4.57 ± 0.38 and a protein stability index under setting [2] of 4.35 ± 0.5.

EEQESVDTGEEEEGGDESDLSSES [EHMT1] showed a protein stability index under setting [1] of 5.57 ± 0.19 and a protein stability index under setting [2] of 5.64 ± 0.16.

Consider EESEKAMQERVQRLEAARLSLEEE [LRRC45], for which the protein stability index is, setting by setting: under setting [1], 5.48 ± 0.2; under setting [2], 5.57 ± 0.091.

Turning to EEVVSTLDAVQVLSGVSQLLPKSR [FCHO1], the protein stability index is, setting by setting: under setting [1], 4.3 ± 0.28; under setting [2], 4.43 ± 0.24.

Regarding EFFRESVNRFGTYPALASKNGKKW [ACSBG2], the protein stability index is, setting by setting: under setting [1], 2.87 ± 0.45; under setting [2], 3.2 ± 0.28.

For the sequence EFLTNELSRKLMQLQHEKAELEQH [CCDC6], the protein stability index worked out at 2.98 ± 0.16 under setting [1] and 3.05 ± 0.3 under setting [2].

With EFQMFPKSRLSSVSVTYCSVSQDF [ETS2], the protein stability index turned out to be 2.23 ± 0.25 under setting [1] and 2.15 ± 0.21 under setting [2].

With EGGEVRFNGKGKKIRKPRTIYCSL [DLX1], the protein stability index came out at 2.92 ± 0.1 under setting [1] and 3.39 ± 0.26 under setting [2].

As for EGSLEWDILEVKRLLDHQDNILSL [WDR41], the protein stability index by setting is: under setting [1], 2.42 ± 0.2; under setting [2], 2.53 ± 0.21.

For the sequence EGVATYAAAVLFRMSEDKPQDYKK [CTNNB1], the protein stability index under setting [1] is 3.45 ± 0.17 and the protein stability index under setting [2] came to 3.46 ± 0.21.

Take EHICVNNGNSYICKCSEGFVLAED [MATN2]: the protein stability index was determined as 4.61 ± 0.15 under setting [1] and 4.26 ± 0.53 under setting [2].

Regarding EIELQAQHNLRDSLENTLTESEAH [KRT34], the protein stability index by setting is: under setting [1], 5.3 ± 0.27; under setting [2], 5.18 ± 0.16.

In the case of EIIELLILSGARVNAKDNMWLTPL [ANKRD44], the protein stability index runs as follows: under setting [1], 3.16 ± 0.2; under setting [2], 3.3 ± 0.72.

Take EITTLRQVLSAKERHLVEIKQKLG [TPD52L1]: the protein stability index is, setting by setting: under setting [1], 2.97 ± 0.57; under setting [2], 3.16 ± 0.12.

For EKNFFPEYNYDWWEKKPFSEDVNW [CHGB], the protein stability index was 2.78 ± 0.54 under setting [1] and 2.76 ± 0.47 under setting [2].

As for EKPRVPAFACQVAGCCQVFDALDD [ZNF511], the protein stability index reads like this: under setting [1], 3.94 ± 0.22; under setting [2], 3.99 ± 0.092.

For the sequence EKQADFLDKQMSRDEHRARAMKIP [NFE2L1], the protein stability index is 4.46 ± 0.16 under setting [1] and 4.58 ± 0.12 under setting [2].

As for EKRERALEEVERAILEMKWKVRAE [ZBED2], the protein stability index was 3.77 ± 0.27 under setting [1] and 3.74 ± 0.53 under setting [2].

On to EKRGCPRTALEYCKLILSLEPDED [TCF25], for which the protein stability index runs as follows: under setting [1], 3.37 ± 0.17; under setting [2], 3.42 ± 0.097.

Consider ELDILPIHPPSGNSDLDPDAQNPM [BTBD10], for which the protein stability index came out at 5.45 ± 0.16 under setting [1] and 5.38 ± 0.16 under setting [2].

As for ELFIEISRRIPSTDANLPSGGKGF [RAB22A], the protein stability index is, setting by setting: under setting [1], 2.36 ± 0.33; under setting [2], 2.14 ± 0.34.

Consider ELIGDYSKAFLLQTVDGKHQDLKY [CDC25B], for which the protein stability index was 2.41 ± 0.18 under setting [1] and 2.51 ± 0.29 under setting [2].

On to ELLVYIVFLVDICLLTYGMTSSSA [PKD2L1], for which the protein stability index runs as follows: under setting [1], 3.19 ± 0.45; under setting [2], 2.93 ± 0.67.

As to ELLWKLQTGDPTSPIKLSPTSPVY [MTUS2], the protein stability index is, setting by setting: under setting [1], 2.3 ± 0.32; under setting [2], 2.36 ± 0.16.

With ELSNILNLSYKQVKTWFQNQRMKS [NANOGP8], the protein stability index under setting [1] worked out at 2.63 ± 0.49 and the protein stability index under setting [2] is 2.38 ± 0.43.

As for ELSTLRNLFKQLPEPLLASSGHC [CEBPB], the protein stability index by setting is: (treatment: DMSO, c terminus: native) 2.12 ± 0.44; (treatment: MLN4924 1 uM, 8 h, c terminus: native) 2.38 ± 0.14.

In the case of ELVVRFFACPSKTDFFKNIMNFID [KCNA1], the protein stability index came to 2.32 ± 0.58 under setting [1] and 2.33 ± 0.52 under setting [2].

In turn, ELVYADDYIMDEDQSKLAGLLDLN [ESRRG] returned a protein stability index under setting [1] of 3.48 ± 0.21 and a protein stability index under setting [2] of 3.68 ± 0.21.

Take EMLTGQERVALANRKRECGNAHYQ [FKBP8]: the protein stability index under setting [1] amounted to 3.71 ± 0.23 and the protein stability index under setting [2] is 3.86 ± 0.27.

As to ENMVTVGFFSCMGTLCIGAAAFSQ [KCNK9], the protein stability index reads like this: under setting [1], 3.39 ± 0.5; under setting [2], 2.91 ± 0.16.

Take EPAPGSALSPAGVCGGAQRPGHLP [CDC25B]: the protein stability index reads like this: under setting [1], 4.6 ± 0.15; under setting [2], 4.49 ± 0.21.

In the case of EPATPEEGEPATQRQDPAAAQEGE [GAGE1], the protein stability index reads like this: under setting [1], 5.62 ± 0.13; under setting [2], 5.61 ± 0.19.

Sequence EPGTPSSSPDDKLLTSPRAINNLV [KLHL14] displayed a protein stability index under setting [1] of 4.87 ± 0.16 and a protein stability index under setting [2] of 4.91 ± 0.34.

EPQSEPVRVLDMVAKLESECLKRQ [FBXO34] yielded a protein stability index under setting [1] of 4.88 ± 0.28 and a protein stability index under setting [2] of 4.9 ± 0.054.

In the case of EQFHEAASKMESTIKPRRVEPVCS [CHCHD6], the protein stability index is, setting by setting: under setting [1], 4.42 ± 0.31; under setting [2], 4.61 ± 0.14.

For the sequence ERAAAQARRELQAEREALQARLRD [ZBED3], the protein stability index reads like this: under setting [1], 5.27 ± 0.21; under setting [2], 5.33 ± 0.22.

On to EREAEKEQKRLERLQRKLVEPKHC [SDE2], for which the protein stability index amounted to 4.7 ± 0.17 under setting [1] and 4.82 ± 0.085 under setting [2].

On to EREEEDDALDSEGRDSEGPAEGEG [KCNG1], for which the protein stability index by setting is: under setting [1], 5.55 ± 0.29; under setting [2], 5.74 ± 0.12.

Regarding ERLASANLRVLVDCILRDTSEDLR [TEKT4], the protein stability index is 2.21 ± 0.48 under setting [1] and 2.05 ± 0.15 under setting [2].

For the sequence ERLKANDNLKFSQEYESIDPGQQF [PTPRD], the protein stability index is, setting by setting: under setting [1], 4.21 ± 0.12; under setting [2], 4.22 ± 0.16.

With ERPWIKRMIFKLFSQETVMKFVPR [APMAP], the protein stability index under setting [1] was found to be 2.71 ± 0.75 and the protein stability index under setting [2] is 2.48 ± 1.1.

Consider ESDPSDPNKDMVVQLIDDFKISGM [SRPK2], for which the protein stability index amounted to 4.82 ± 0.3 under setting [1] and 4.8 ± 0.26 under setting [2].

For ESKVREATNDDPWGPSGQLMGEIA [CLINT1], the protein stability index is 4.7 ± 0.12 under setting [1] and 4.78 ± 0.096 under setting [2].

As to ESSSPARGIAIVSVLVILISIVIF [KCNA4], the protein stability index is 3.13 ± 0.59 under setting [1] and 2.9 ± 0.33 under setting [2].

As to ESTLYPNPYHQPYISRKYFATRPG [TPRG1], the protein stability index turned out to be 2.76 ± 0.43 under setting [1] and 3.03 ± 0.088 under setting [2].

Take ESVADLLALEEPVDYKQSVLNVAG [SLC6A17]: the protein stability index stood at 4.43 ± 0.1 under setting [1] and 4.58 ± 0.24 under setting [2].

As for ETLLGDPEKRTQYFDPLRNEYFFD [KCNA4], the protein stability index reads like this: under setting [1], 2.91 ± 0.48; under setting [2], 3.81 ± 0.9.

As for ETPGCATLLPASLFVNSHPGIDRP [DCAF4], the protein stability index came to 3.61 ± 0.3 under setting [1] and 3.75 ± 0.1 under setting [2].

Turning to ETQKLLCKNGETLLGAVNFFVSSI [ARFIP2], the protein stability index reads like this: under setting [1], 2.49 ± 0.52; under setting [2], 2.25 ± 0.36.

In the case of ETVYAAYLPKNTHPFLYLSLEISP [MLH1], under setting [1], the protein stability index worked out at 2.82 ± 0.51.

Consider EVAAQLPAVRQLLPCARVQICRAQ [ZSWIM9], for which the protein stability index runs as follows: under setting [1], 2.42 ± 0.23; under setting [2], 2.77 ± 0.35.

For EVHVPPSSAVSGVKEWFGLGGEQA [MIA2], the protein stability index runs as follows: under setting [1], 4.31 ± 0.22; under setting [2], 4.29 ± 0.44.

Take EVPLEVLRQRESKWLDMLNNWDKW [TBC1D10A]: the protein stability index under setting [1] was 2.8 ± 0.18 and the protein stability index under setting [2] was 3.17 ± 0.49.

EVTVQRNCCLTLCNFSIPEELEFQ [ZER1]: the protein stability index worked out at 2.68 ± 0.26 under setting [1] and 2.59 ± 0.42 under setting [2].

On to EVWGNALLRPPVAAFVRAQADLLA [DNAAF3], for which the protein stability index worked out at 2.39 ± 0.31 under setting [1] and 2.02 ± 0.37 under setting [2].

Take EYEGGHIKTAVNLPLERDAESFLL [CDC25B]: the protein stability index runs as follows: under setting [1], 3.91 ± 0.16; under setting [2], 3.97 ± 0.21.

On to EYRQRRERNNIAVRKSRDKAKRRN [CEBPD], for which the protein stability index amounted to 4.42 ± 0.36 under setting [1] and 4.426 ± 0.023 under setting [2].

For FALQGLPLNCAPCPRRSEPVVQCQ [IRX6], the protein stability index came to 2.7 ± 0.16 under setting [1] and 2.79 ± 0.28 under setting [2].

On to FAPLWEVFRVSSDKLALCHLELTR [FCHO1], for which the protein stability index reads like this: under setting [1], 2.68 ± 0.36; under setting [2], 2.52 ± 0.29.

On to FAQADALKGTLVSTLKEVKPTVFI [ACSBG2], for which the protein stability index stood at 2.4 ± 0.52 under setting [1] and 3.04 ± 0.86 under setting [2].

Consider FEPPAPGEGNSSQNSRNKRAVQGP [TNFSF13B], for which the protein stability index is, setting by setting: under setting [1], 5.3 ± 0.17; under setting [2], 5.45 ± 0.2.

Regarding FEYRGEQHKTCMLNATSKFMEFYQ [EDNRA], the protein stability index runs as follows: under setting [1], 2.08 ± 0.36; under setting [2], 1.89 ± 0.32.

For FGEDGIFRHDRLRFRDFVDALEDS [PBXIP1], the protein stability index runs as follows: under setting [1], 3.29 ± 0.32; under setting [2], 3.58 ± 0.46.

Sequence FGLSILWVLLFTPCSFVCWYRPMY [SCAMP3] had a protein stability index under setting [1] of 2.97 ± 0.37 and a protein stability index under setting [2] of 3.48 ± 0.32.

In the case of FGNSEKPETMTCRLSNNQRYLFLD [ZFYVE21], the protein stability index under setting [1] stood at 2.44 ± 0.42 and the protein stability index under setting [2] was determined as 2.1 ± 0.54.

In the case of FHEVGTEMIITKAGRRMFPSYKVK [TBX5], the protein stability index stood at 2.35 ± 0.35 under setting [1] and 2.72 ± 0.33 under setting [2].

With FHRSQTLSYRNGYAIVRRPTVGIG [EFHC1], the protein stability index is, setting by setting: under setting [1], 2.44 ± 0.39; under setting [2], 2.54 ± 0.22.

FHYVDILALLPAAWEDSHGSQDGH [SCNN1D]: the protein stability index worked out at 2.26 ± 0.56 under setting [1] and 2.13 ± 0.25 under setting [2].

In the case of FKLADPDEVARRWGKRKNKPKMNY [ETS2], the protein stability index under setting [1] was 3.48 ± 0.48 and the protein stability index under setting [2] turned out to be 3.67 ± 0.13.
